Read-outs that look alike come from different tables or passages of the source.
Experiments:
[1] = molecular target: the molecule itself; experiment: SEC; gel filtration on Superdex 200 10/300GL in 50 mM Tris-HCl, pH 7.6, 200 mM KCl (also Sephacryl S-400HR in 25 mM sodium phosphate, pH 7.6, 150 mM NaCl); elution compared with reference proteins; dimer formation judged from apparent size
[2] = molecular target: the molecule itself; experiment: as above; remark: listed apart in the source

Protein | binding result [1] | binding result [2]
ABD-ROD of S. pombe α-actinin (domain or fragment, Schizosaccharomyces pombe, UniProt O13728 1-483, looked up, 485 residues in all; also called pTEV-SP-ABD-ROD; source: E. coli BL21(DE3), purified (nickel chelating column, TEV cleavage, ion exchange when necessary); not shown: 10xHis, N-terminal, cleaved) MQANQWQSVQNRTFTKWFNTKLSSRDLPSVFDLRKDLSDGILLIQLLEIIGDENLGRYNRNPRMRVHRLENVNKALEYIKSKGMPLTNIGPADIVDGNLKLILGLIWTLILRFTIADINEEGLTAKEGLLLWCQRKTANYHPEVDVQDFTRSWTNGLAFCALIHQHRPDLLDYNKLDKKNHRANMQLAFDIAQKSIGIPRLIEVEDVCDVDRPDERSIMTYVAEYFHAFSTLDKVETAARRVERFTEVLMSTHDMKIDYESRMKRLLGSIARMQEYWHTVQFENNYTDVKSHSNNFAKFKATEKREWVKEKIDLESLLGTIQTNLKTYQLRKYEPPAGLKIVDLERQWKDFLSEEANQSKLINTHMREIKESMRIAFADRANSFSKMLSTISNEITNLQGDWRDQLDHVEFLQEHLGPLEVELASVKVLYDNCFQAGIEENDYTMFSYEDLEHEFGITANIIANKIKYLENELLEREKRTLSK | binds | –
rod domain (ROD) of S. pombe α-actinin (domain or fragment, Schizosaccharomyces pombe, UniProt O13728 228-483, looked up, alpha-actinin of Schizosaccharomyces pombe, rod domain with two putative spectrin repeats, nucleotides 682-1449, residues 228-483; 258 residues in all; also called pTEV-SP-ROD; source: E. coli BL21(DE3), purified (nickel chelating column, TEV cleavage, ion exchange when necessary); not shown: 10xHis, N-terminal, cleaved) AFSTLDKVETAARRVERFTEVLMSTHDMKIDYESRMKRLLGSIARMQEYWHTVQFENNYTDVKSHSNNFAKFKATEKREWVKEKIDLESLLGTIQTNLKTYQLRKYEPPAGLKIVDLERQWKDFLSEEANQSKLINTHMREIKESMRIAFADRANSFSKMLSTISNEITNLQGDWRDQLDHVEFLQEHLGPLEVELASVKVLYDNCFQAGIEENDYTMFSYEDLEHEFGITANIIANKIKYLENELLEREKRTLSK | binds | –
ROD-EF of S. pombe α-actinin (domain or fragment, Schizosaccharomyces pombe, UniProt O13728 228-621, looked up, 396 residues in all; also called pTEV-SP-ROD-EF; source: E. coli BL21(DE3), purified (nickel chelating column, TEV cleavage, ion exchange when necessary); not shown: 10xHis, N-terminal, cleaved) AFSTLDKVETAARRVERFTEVLMSTHDMKIDYESRMKRLLGSIARMQEYWHTVQFENNYTDVKSHSNNFAKFKATEKREWVKEKIDLESLLGTIQTNLKTYQLRKYEPPAGLKIVDLERQWKDFLSEEANQSKLINTHMREIKESMRIAFADRANSFSKMLSTISNEITNLQGDWRDQLDHVEFLQEHLGPLEVELASVKVLYDNCFQAGIEENDYTMFSYEDLEHEFGITANIIANKIKYLENELLEREKRTLSKQELDGITKVFRHFEKKKSNMLNEVEFYAALASLGLVYDTEEGTALFHRAANSEEGVTYERFTEIVMEELEDRDSARQVLYAFCDVADGKSYVTSDDLLRSQVRPNIVKFLECNMNKHSEGLDYLTWIKQLLAEDKEIV | binds | –
full-length S. pombe α-actinin (natural protein, Schizosaccharomyces pombe, UniProt O13728 1-621, looked up, also called full length α-actinin; pTEV-SP; source: E. coli BL21(DE3), purified (nickel chelating column, TEV cleavage, ion exchange when necessary); not shown: 10xHis, N-terminal, cleaved) MQANQWQSVQNRTFTKWFNTKLSSRDLPSVFDLRKDLSDGILLIQLLEIIGDENLGRYNRNPRMRVHRLENVNKALEYIKSKGMPLTNIGPADIVDGNLKLILGLIWTLILRFTIADINEEGLTAKEGLLLWCQRKTANYHPEVDVQDFTRSWTNGLAFCALIHQHRPDLLDYNKLDKKNHRANMQLAFDIAQKSIGIPRLIEVEDVCDVDRPDERSIMTYVAEYFHAFSTLDKVETAARRVERFTEVLMSTHDMKIDYESRMKRLLGSIARMQEYWHTVQFENNYTDVKSHSNNFAKFKATEKREWVKEKIDLESLLGTIQTNLKTYQLRKYEPPAGLKIVDLERQWKDFLSEEANQSKLINTHMREIKESMRIAFADRANSFSKMLSTISNEITNLQGDWRDQLDHVEFLQEHLGPLEVELASVKVLYDNCFQAGIEENDYTMFSYEDLEHEFGITANIIANKIKYLENELLEREKRTLSKQELDGITKVFRHFEKKKSNMLNEVEFYAALASLGLVYDTEEGTALFHRAANSEEGVTYERFTEIVMEELEDRDSARQVLYAFCDVADGKSYVTSDDLLRSQVRPNIVKFLECNMNKHSEGLDYLTWIKQLLAEDKEIV | – | binds
